According to PMC2935574 (The Journal of Cell Biology, 2010):
“And” between values parts separate entries of the source, which are not always exact repeats. Equal values may be shown once.

T1: KNL1^2106–2316 (C-terminal region of KNL1) (human, UniProt Q8NG31-2 2106-2316)
T1 sequence (looked up): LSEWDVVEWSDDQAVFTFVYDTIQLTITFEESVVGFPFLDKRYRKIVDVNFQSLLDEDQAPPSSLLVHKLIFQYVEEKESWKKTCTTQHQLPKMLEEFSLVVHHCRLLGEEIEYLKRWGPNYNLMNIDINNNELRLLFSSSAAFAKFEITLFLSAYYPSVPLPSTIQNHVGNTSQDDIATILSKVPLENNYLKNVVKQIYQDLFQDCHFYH

T2: DSN1 (subunit of MIS12C, hexahistidine tag) (human, UniProt Q9H410 1-356)
T2 sequence (looked up): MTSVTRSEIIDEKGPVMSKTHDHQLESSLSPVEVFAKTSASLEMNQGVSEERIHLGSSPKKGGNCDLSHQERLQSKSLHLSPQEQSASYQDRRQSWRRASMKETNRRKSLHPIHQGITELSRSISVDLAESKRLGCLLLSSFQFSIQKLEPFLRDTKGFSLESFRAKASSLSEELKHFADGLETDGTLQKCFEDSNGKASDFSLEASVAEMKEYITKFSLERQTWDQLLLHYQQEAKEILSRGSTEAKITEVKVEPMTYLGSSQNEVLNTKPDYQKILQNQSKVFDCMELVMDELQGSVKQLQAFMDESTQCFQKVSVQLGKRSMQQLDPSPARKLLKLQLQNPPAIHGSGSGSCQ

T3: SPC25^70–224 (human, UniProt Q9HBM1 70-224)
T3 sequence (looked up): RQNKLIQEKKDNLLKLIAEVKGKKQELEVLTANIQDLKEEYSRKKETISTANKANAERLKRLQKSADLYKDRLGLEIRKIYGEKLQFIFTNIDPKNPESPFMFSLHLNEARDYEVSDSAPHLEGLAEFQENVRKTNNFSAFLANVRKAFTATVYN

B1: NSL1^227–281 (C-terminal tail of NSL1) (domain or fragment, human, UniProt Q96IY1 227-281, looked up)
chain: KPDAKPENFITQIETTPTETASRKTSDMVLKRKQTKDCPQRKWYPLRPKKINLDT
B2: MIS12C^NSL1-227 (MIS12 complex with a more extensive C-terminal deletion of NSL1) (complex, human)
chain 1: MSVDPMTYEAQFFGFTPQTCMLRIYIAFQDYLFEVMQAVEQVILKKLDGIPDCDISPVQIRKCTEKFLCFMKGHFDNLFSKMEQLFLQLILRIPSNILLPEDKCKETPYSEEDFQHLQKEIEQLQEKYKTELCTKQALLAELEEQKIVQAKLKQTLTFFDELHNVGRDHGTSDFRESLVSLVQNSRKLQNIRDNVEKESKRLKIS
chain 2: MAEASSANLGSGCEEKRHEGSSSESVPPGTTISRVKLLDTMVDTFLQKLVAAGSYQRFTDCYKCFYQLQPAMTQQIYDKFIAQLQTSIREEISDIKEEGNLEAVLNALDKIVEEGKVRKEPAWRPSGIPEKDLHSVMAPYFLQQRDTLRRHVQKQEAENQQLADAVLAGRRQVEELQLQVQAQQQAWQALHREQRELVAVLREPE
chain 3: T2 sequence (looked up)
chain 4: MAGSPELVVLDPPWDKELAAGTESQALVSATPREDFRVRCTSKRAVTEMLQLCGRFVQKLGDALPEEIREPALRDAQWTFESAVQENISINGQAWQEASDNCFMDSDIKVLEDQFDEIIVDIATKRKQYPRKILECVIKTIKAKQEILKQYHPVVHPLDLKYDPDPAPHMENLKCRGETVAKEISEAMKSLPALIEQGEGFSQVLRMQPVIHLQRIHQEVFSSCHRK
B3: MIS12C^NSL1-258 (MIS12 complex with NSL1 residues 1–258) (complex, human)
chain 1: B2 chain 1
chain 2: B2 chain 2
chain 3: T2 sequence (looked up)
chain 4: MAGSPELVVLDPPWDKELAAGTESQALVSATPREDFRVRCTSKRAVTEMLQLCGRFVQKLGDALPEEIREPALRDAQWTFESAVQENISINGQAWQEASDNCFMDSDIKVLEDQFDEIIVDIATKRKQYPRKILECVIKTIKAKQEILKQYHPVVHPLDLKYDPDPAPHMENLKCRGETVAKEISEAMKSLPALIEQGEGFSQVLRMQPVIHLQRIHQEVFSSCHRKPDAKPENFITQIETTPTETASRKTSDMVLKR
B4: MIS12 (subunit of MIS12C) (natural protein, human, UniProt Q9H081 1-205, looked up)
chain: B2 chain 1
B5: MIS12C–KNL1^2106–2316 (five-subunit complex) (complex, human)
chain 1: B2 chain 1
chain 2: B2 chain 2
chain 3: T2 sequence (looked up)
chain 4: MAGSPELVVLDPPWDKELAAGTESQALVSATPREDFRVRCTSKRAVTEMLQLCGRFVQKLGDALPEEIREPALRDAQWTFESAVQENISINGQAWQEASDNCFMDSDIKVLEDQFDEIIVDIATKRKQYPRKILECVIKTIKAKQEILKQYHPVVHPLDLKYDPDPAPHMENLKCRGETVAKEISEAMKSLPALIEQGEGFSQVLRMQPVIHLQRIHQEVFSSCHRKPDAKPENFITQIETTPTETASRKTSDMVLKRKQTKDCPQRKWYPLRPKKINLDT
chain 5: T1 sequence (looked up)
B6: SPC24^57–197–SPC25^70–224 (complex, human)
chain 1: TMEKEVAQSLLNAKEQVHQGGVELQQLEAGLQEAGEEDTRLKASLLQLTRELEELKEIEADLERQEKEVDEDTTVTIPSAVYVAQLYHQVSKIEWDYECEPGMVKGIHHGPSVAQPIHLDSTQLSRKFISDYLWSLVDTEW
chain 2: T3 sequence (looked up)
B7: SPC24^57–197 (domain or fragment, human, UniProt Q8NBT2 57-197, looked up)
chain: B6 chain 1

Key:
[1] = biological target: fluorescein-labeled synthetic peptides encompassing residues 205–217 or 202–219 of NSL1; assay: fluorescence polarisation
[2] = biological target: T1, KNL1^2106–2316 (C-terminal region of …); assay: ITC
[3] = biological target: T4, NDC80 complex (four-subunit NDC80C) (human, UniProt O14777 1-642; Q9BZD4 1-464; Q8NBT2 1-197; Q9HBM1 1-224); assay: SEC
[4] = biological target: T4, NDC80 complex (four-subunit NDC80C); assay: ITC
[5] = biological target: T2, DSN1 (subunit of MIS12C, hexahistidine …); assay: co-expression and co-purification
[6] = biological target: B3; assay: AUC
[7] = biological target: B3; assay: ITC
[8] = biological target: T3, SPC25^70–224; assay: AUC

T4 sequence (O14777 whole entry, chain 1 of 4): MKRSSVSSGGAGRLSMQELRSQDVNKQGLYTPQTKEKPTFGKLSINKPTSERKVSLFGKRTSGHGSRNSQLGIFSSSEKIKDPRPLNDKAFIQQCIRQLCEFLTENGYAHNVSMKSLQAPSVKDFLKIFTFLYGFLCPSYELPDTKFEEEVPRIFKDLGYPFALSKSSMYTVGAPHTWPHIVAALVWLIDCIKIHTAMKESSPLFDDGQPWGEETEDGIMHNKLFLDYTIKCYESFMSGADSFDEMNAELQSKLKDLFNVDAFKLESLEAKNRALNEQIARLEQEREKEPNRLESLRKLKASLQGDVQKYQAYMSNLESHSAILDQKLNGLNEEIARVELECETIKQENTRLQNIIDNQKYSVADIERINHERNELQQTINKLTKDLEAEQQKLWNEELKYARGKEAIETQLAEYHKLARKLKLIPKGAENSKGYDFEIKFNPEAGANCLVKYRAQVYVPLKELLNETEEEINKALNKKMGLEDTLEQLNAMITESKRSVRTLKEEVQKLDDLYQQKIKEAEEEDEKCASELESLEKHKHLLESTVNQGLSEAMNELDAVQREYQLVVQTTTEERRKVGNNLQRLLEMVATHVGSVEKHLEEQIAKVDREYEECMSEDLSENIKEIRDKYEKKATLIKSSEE
T4 sequence (Q9BZD4 whole entry, chain 2 of 4): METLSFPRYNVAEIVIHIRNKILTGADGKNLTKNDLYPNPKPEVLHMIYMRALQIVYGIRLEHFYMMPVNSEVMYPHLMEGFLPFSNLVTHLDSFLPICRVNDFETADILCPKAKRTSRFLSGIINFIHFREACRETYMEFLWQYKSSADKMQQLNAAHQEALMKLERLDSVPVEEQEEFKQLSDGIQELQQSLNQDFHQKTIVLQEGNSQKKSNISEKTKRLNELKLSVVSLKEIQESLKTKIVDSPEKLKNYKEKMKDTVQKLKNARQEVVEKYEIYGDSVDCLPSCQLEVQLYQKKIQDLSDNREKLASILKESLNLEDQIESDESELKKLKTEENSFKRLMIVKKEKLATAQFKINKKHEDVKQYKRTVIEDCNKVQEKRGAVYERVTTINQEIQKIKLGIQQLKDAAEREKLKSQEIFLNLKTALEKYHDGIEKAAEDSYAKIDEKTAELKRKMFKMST
T4 sequence (Q8NBT2 whole entry, chain 3 of 4): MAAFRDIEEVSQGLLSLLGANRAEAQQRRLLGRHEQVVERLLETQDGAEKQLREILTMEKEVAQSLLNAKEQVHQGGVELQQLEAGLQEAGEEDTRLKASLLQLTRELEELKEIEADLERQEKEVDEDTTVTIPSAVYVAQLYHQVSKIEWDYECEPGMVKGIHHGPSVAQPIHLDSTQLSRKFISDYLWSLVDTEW
T4 sequence (Q9HBM1 whole entry, chain 4 of 4): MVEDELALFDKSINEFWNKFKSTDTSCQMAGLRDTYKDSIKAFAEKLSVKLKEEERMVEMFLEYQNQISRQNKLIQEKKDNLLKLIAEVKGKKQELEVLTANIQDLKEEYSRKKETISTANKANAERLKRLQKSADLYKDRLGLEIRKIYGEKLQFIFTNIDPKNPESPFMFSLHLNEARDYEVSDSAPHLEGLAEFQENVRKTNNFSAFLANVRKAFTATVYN

Molecule “HP1^110–191 (chromoshadow domain of HP1-α) (from UniProt P45973 110-191) (domain or fragment)” has a Kd [1] of 400 to 500 nM.

With B1 the Kd [2] was ~63 nM and ~130 nM and the “stoichiometry N” value [2] was 1.

B2: binds [3].

B3 was tested, and the Kd [4] was roughly 10 nM.

B4: binds [5].

For B5, the Kd [4] was 4 nM.

In the case of B6, the “stoichiometry N” value [6] is reported as 1 and the Kd [7] is reported as roughly 10 nM.

B7 was tested, and the “stoichiometry N” value [8] was 1.
